Results as given in US20240035010, “COMPOSITIONS COMPRISING A VARIANT POLYPEPTIDE AND USES THEREOF” (Arbor Biotechnologies, Inc., published 2024).

Tests used:
Assay in all cases: cell_activity; PAM 5'-ATTG-3'
Settings in all cases: tags: pcDNA3.1 expression
[1] = molecular target: T1, variant nuclease E736G combination (P14R, D32R, I61R, E311R, E736G)
T1 chain: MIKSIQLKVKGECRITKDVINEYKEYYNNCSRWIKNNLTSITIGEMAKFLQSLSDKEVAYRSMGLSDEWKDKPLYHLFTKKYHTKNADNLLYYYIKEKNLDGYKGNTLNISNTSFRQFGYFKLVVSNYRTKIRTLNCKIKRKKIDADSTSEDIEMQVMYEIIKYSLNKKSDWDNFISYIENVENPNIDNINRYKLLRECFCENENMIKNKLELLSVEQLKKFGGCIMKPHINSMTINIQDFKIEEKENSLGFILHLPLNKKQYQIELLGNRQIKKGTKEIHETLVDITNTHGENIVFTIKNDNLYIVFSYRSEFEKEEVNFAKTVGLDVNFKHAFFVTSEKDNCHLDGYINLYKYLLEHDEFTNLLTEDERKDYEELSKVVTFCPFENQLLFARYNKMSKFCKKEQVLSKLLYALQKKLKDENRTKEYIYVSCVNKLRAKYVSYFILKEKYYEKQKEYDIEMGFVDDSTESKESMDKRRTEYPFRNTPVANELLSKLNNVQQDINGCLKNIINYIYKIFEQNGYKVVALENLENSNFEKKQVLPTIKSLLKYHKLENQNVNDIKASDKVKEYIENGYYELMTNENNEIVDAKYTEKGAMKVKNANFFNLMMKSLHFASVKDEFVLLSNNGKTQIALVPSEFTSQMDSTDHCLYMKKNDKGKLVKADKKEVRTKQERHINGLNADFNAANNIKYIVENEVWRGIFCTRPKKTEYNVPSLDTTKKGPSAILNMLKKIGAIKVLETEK

[2] = molecular target: T2, variant nuclease T338G combination (P14R, D32R, I61R, E311R, T338G)
T2 chain: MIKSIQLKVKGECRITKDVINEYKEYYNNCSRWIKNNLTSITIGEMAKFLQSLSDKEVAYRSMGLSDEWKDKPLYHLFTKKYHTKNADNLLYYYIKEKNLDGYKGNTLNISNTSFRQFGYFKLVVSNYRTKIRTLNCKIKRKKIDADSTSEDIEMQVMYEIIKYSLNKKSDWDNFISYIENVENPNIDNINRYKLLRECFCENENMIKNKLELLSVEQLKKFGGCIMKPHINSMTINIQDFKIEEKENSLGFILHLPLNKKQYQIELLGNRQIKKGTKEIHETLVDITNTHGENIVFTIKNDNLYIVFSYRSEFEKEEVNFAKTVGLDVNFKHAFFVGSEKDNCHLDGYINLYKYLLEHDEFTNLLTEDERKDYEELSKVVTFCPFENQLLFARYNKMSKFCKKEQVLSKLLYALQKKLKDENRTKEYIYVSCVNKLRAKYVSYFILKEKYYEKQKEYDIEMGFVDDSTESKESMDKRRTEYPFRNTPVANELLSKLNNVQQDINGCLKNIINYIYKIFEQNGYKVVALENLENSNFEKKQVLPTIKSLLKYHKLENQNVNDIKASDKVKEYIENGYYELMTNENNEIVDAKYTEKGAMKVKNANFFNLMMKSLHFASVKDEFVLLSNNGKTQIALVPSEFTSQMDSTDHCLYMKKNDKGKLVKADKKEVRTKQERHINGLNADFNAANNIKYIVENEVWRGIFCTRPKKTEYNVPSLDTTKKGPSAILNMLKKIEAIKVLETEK

[3] = molecular target: T3, variant nuclease L38G combination (P14R, D32R, I61R, E311R, L38G)
T3 chain: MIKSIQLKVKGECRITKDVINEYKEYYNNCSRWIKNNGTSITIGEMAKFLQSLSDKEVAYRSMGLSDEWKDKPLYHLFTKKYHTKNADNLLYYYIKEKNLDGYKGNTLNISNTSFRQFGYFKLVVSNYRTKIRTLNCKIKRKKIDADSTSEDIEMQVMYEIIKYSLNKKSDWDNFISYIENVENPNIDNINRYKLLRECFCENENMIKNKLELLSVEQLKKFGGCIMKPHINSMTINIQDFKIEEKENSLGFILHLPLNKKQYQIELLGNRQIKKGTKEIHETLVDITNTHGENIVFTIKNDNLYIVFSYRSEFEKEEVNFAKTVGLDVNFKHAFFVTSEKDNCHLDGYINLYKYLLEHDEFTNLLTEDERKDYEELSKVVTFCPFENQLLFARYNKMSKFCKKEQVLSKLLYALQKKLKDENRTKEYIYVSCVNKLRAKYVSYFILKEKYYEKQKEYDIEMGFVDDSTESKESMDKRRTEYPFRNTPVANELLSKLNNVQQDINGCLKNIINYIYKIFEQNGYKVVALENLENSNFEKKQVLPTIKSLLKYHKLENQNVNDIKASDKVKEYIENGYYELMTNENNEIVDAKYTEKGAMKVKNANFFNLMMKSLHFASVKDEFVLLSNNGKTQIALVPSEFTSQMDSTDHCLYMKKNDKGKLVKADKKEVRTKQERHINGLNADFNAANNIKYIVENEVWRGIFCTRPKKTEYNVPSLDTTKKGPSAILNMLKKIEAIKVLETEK

B1: EMX1 crRNA ; EMX1 target (ssRNA ; dsDNA)
RNA: CUUGUUGUAUAUGUCCUUUUAUAGGUAUUAAACAACCCGCCGCUUCCUGAGCCAUC
DNA 1: CCGCCGCTTCCTGAGCCATC
DNA 2: GATGGCTCAGGAAGCGGCGG
With B1 the indel editing activity [1] was 10.1 fold of WT, the indel editing activity [2] was 7.58 fold of WT and the indel editing activity [3] was 0.16 fold of WT.
